Assay results from patent US20150344570A1 (published 2015).

T1: FcγRIIa H (FcγRIIa type H, His at position 131), extracellular domain with C-terminal His tag (human, UniProt P12318 34-217)
T1 construct: extracellular domain; also called FcgRIIa H; 2aH
T1 sequence (looked up): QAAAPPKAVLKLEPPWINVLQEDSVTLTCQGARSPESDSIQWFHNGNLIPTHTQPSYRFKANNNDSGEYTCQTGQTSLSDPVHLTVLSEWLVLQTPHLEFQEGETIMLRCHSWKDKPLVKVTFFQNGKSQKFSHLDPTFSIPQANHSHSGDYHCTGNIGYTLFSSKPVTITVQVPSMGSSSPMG

T2: FcγRIIb extracellular domain with C-terminal His tag (human, UniProt P31994 43-217)
T2 construct: extracellular domain; also called FcgRIIb; 2b; not shown: His tag at the C terminus
T2 sequence (looked up): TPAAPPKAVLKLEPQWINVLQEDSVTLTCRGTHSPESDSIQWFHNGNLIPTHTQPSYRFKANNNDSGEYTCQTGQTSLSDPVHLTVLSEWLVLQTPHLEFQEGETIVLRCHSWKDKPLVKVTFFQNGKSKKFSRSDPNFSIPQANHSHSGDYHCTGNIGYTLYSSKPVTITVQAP

B1: GpH7-A5/GpH7-B3 variant S337_09D/GpL16-k0 (antibody, human IgG1, kappa)
heavy 1: not shown
heavy 2: not shown
light: DIVMTQSPLSLPVTPGEPASISCQASESLVHSNRNTYLHWYLQKPGQSPQLLIYKVSNRFSGVPDRFSGSGSGTDFTLKISRVEAEDVGVYYCSQNTHVPPTFGQGTKVEIERTVAAPSVFIFPPSDEQLKSGTASVVCLLNNFYPREAKVQWKVDNALQSGNSQESVTEQDSKDSTYSLSSTLTLSKADYEKHKVYACEVTHQGLSSPVTKSFNRGEC
notes: one H chain mutated; also called He Ab
B2: GpH7-B3 variant K326_07I/GpL16-k0 (antibody, human IgG1, kappa)
heavy: not shown
light: B1 light
notes: also called Ho Ab K326_07I
B3: GpH7-A5/GpH7-B3 variant T335_13S/GpL16-k0 (antibody, human IgG1, kappa)
heavy 1: not shown
heavy 2: not shown
light: B1 light
notes: as for B1
B4: GpH7-A5/GpH7-B3 variant S337_14T/GpL16-k0 (antibody, human IgG1, kappa)
heavy 1: not shown
heavy 2: not shown
light: B1 light
notes: as for B1
B5: GpH7-B3 variant K334_02A/GpL16-k0 (antibody, human IgG1, kappa)
heavy: not shown
light: B1 light
notes: also called Ho Ab K334_02A
B6: GpH7-B3 variant I336_08L/GpL16-k0 (antibody, human IgG1, kappa)
heavy: not shown
light: B1 light
notes: also called Ho Ab I336_08L
B7: GpH7-B3 variant A327_10E/GpL16-k0 (antibody, human IgG1, kappa)
heavy: not shown
light: B1 light
notes: also called Ho Ab A327_10E
B8: GpH7-B3 variant G236_10E/GpL16-k0 (antibody, human IgG1, kappa)
heavy: not shown
light: B1 light
notes: also called Ho Ab G236_10E
B9: GpH7-B3 variant A327_09D/GpL16-k0 (antibody, human IgG1, kappa)
heavy: not shown
light: B1 light
notes: also called Ho Ab A327_09D
B10: GpH7-B3 variant K334_03V/GpL16-k0 (antibody, human IgG1, kappa)
heavy: not shown
light: B1 light
notes: also called Ho Ab K334_03V
B11: GpH7-A5/GpH7-B3 variant T335_16H/GpL16-k0 (antibody, human IgG1, kappa)
heavy 1: not shown
heavy 2: not shown
light: B1 light
notes: as for B1
B12: GpH7-B3 variant K334_13S/GpL16-k0 (antibody, human IgG1, kappa)
heavy: not shown
light: B1 light
notes: also called Ho Ab K334_13S
B13: GpH7-B3 variant I332_15Y/GpL16-k0 (antibody, human IgG1, kappa)
heavy: not shown
light: B1 light
notes: also called Ho Ab I332_15Y
B14: GpH7-B3 variant K326_19Q/GpL16-k0 (antibody, human IgG1, kappa)
heavy: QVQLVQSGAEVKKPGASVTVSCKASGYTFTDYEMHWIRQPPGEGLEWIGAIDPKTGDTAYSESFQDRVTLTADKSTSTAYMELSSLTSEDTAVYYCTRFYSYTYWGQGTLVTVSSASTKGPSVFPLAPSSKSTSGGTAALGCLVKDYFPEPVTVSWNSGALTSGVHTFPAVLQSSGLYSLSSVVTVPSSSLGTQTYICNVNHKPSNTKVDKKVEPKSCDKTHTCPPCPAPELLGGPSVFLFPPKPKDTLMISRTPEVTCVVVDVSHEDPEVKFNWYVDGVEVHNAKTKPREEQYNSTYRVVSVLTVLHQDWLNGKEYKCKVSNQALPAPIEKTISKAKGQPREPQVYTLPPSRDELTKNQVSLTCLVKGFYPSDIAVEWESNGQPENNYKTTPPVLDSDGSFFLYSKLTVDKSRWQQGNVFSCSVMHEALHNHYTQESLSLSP
light: B1 light
notes: also called Ho Ab K326_19Q
B15: GpH7-A5/GpH7-B3 variant S337_16H/GpL16-k0 (antibody, human IgG1, kappa)
heavy 1: not shown
heavy 2: not shown
light: B1 light
notes: as for B1
B16: GpH7-B3 variant I332_06M/GpL16-k0 (antibody, human IgG1, kappa)
heavy: not shown
light: B1 light
notes: also called Ho Ab I332_06M
B17: GpH7-A5/GpH7-B3 variant T335_01G/GpL16-k0 (antibody, human IgG1, kappa)
heavy 1: not shown
heavy 2: not shown
light: B1 light
notes: as for B1
B18: GpH7-B3 variant K326_04F/GpL16-k0 (antibody, human IgG1, kappa)
heavy: not shown
light: B1 light
notes: also called Ho Ab K326_04F
B19: GpH7-B3 variant I332_04F/GpL16-k0 (antibody, human IgG1, kappa)
heavy: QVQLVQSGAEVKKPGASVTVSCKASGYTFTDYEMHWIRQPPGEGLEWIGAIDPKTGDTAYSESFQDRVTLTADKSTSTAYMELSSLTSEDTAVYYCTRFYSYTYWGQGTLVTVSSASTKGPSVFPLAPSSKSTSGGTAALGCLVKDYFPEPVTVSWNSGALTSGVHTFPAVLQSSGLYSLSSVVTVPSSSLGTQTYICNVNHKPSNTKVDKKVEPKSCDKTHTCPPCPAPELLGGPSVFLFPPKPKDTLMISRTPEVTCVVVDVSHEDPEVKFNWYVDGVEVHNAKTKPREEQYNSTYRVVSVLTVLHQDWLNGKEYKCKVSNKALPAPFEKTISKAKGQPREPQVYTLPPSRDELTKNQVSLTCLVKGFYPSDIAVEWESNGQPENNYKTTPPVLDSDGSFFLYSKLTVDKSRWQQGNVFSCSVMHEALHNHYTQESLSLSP
light: B1 light
notes: also called Ho Ab I332_04F
B20: GpH7-B3 variant H268_01G/GpL16-k0 (antibody, human IgG1, kappa)
heavy: not shown
light: B1 light
notes: also called Ho Ab H268_01G
B21: GpH7-B3 variant K326_03V/GpL16-k0 (antibody, human IgG1, kappa)
heavy: not shown
light: B1 light
notes: also called Ho Ab K326_03V
B22: GpH7-B3 variant G237_20W/GpL16-k0 (antibody, human IgG1, kappa)
heavy: not shown
light: B1 light
notes: also called Ho Ab G237_20W
B23: GpH7-B3 variant K326_06M/GpL16-k0 (antibody, human IgG1, kappa)
heavy: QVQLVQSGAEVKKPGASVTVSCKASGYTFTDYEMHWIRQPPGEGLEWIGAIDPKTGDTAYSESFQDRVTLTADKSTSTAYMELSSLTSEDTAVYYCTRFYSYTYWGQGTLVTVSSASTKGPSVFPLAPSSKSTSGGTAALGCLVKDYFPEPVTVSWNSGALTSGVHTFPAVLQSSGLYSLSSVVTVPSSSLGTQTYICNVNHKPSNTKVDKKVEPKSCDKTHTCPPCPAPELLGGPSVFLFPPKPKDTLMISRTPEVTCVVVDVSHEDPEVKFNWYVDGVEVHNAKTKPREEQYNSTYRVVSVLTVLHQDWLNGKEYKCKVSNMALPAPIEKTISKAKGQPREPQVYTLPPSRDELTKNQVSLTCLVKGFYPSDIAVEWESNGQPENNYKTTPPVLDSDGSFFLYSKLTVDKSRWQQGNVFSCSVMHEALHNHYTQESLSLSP
light: B1 light
notes: also called Ho Ab K326_06M
B24: GpH7-B3 variant H268_10E/GpL16-k0 (antibody, human IgG1, kappa)
heavy: not shown
light: B1 light
notes: also called Ho Ab H268_10E
B25: GpH7-A5/GpH7-B3 variant T335_19Q/GpL16-k0 (antibody, human IgG1, kappa)
heavy 1: not shown
heavy 2: not shown
light: B1 light
notes: as for B1
B26: GpH7-B3 variant K326_08L/GpL16-k0 (antibody, human IgG1, kappa)
heavy: not shown
light: B1 light
notes: also called Ho Ab K326_08L
B27: GpH7-B3 variant L328_02A/GpL16-k0 (antibody, human IgG1, kappa)
heavy: not shown
light: B1 light
notes: also called Ho Ab L328_02A
B28: GpH7-B3 variant K326_10E/GpL16-k0 (antibody, human IgG1, kappa)
heavy: not shown
light: B1 light
notes: also called Ho Ab K326_10E
B29: GpH7-A5/GpH7-B3 variant T335_15Y/GpL16-k0 (antibody, human IgG1, kappa)
heavy 1: not shown
heavy 2: not shown
light: B1 light
notes: as for B1
B30: GpH7-B3 variant A330_01G/GpL16-k0 (antibody, human IgG1, kappa)
heavy: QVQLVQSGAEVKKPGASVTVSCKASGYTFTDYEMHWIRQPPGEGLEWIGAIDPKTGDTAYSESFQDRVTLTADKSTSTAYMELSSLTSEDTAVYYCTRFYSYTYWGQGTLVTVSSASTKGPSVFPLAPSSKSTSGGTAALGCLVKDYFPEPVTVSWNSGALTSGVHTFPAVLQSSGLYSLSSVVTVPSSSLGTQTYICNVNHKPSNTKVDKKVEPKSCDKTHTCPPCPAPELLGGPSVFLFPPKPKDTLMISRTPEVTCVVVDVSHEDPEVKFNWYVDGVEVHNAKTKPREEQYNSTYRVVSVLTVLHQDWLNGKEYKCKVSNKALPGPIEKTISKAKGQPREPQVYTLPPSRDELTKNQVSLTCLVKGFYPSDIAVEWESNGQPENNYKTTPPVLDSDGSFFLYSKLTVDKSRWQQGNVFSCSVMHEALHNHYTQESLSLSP
light: B1 light
notes: also called Ho Ab A330_01G
B31: GpH7-B3 variant K334_07I/GpL16-k0 (antibody, human IgG1, kappa)
heavy: not shown
light: B1 light
notes: also called Ho Ab K334_07I
B32: GpH7-B3 variant L235_20W/GpL16-k0 (antibody, human IgG1, kappa)
heavy: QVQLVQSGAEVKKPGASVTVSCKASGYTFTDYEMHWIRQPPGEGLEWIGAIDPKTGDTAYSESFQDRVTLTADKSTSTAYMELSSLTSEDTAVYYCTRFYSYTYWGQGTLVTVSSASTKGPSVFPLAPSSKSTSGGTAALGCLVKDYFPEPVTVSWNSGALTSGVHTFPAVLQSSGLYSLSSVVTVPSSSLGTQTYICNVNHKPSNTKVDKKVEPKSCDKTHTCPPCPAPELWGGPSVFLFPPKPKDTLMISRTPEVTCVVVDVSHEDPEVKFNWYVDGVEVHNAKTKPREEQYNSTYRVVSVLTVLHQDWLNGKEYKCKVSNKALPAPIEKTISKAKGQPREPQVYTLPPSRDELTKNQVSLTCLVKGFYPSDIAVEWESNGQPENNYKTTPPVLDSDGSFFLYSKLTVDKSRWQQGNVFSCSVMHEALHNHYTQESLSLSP
light: B1 light
notes: also called Ho Ab L235_20W
B33: GpH7-B3 variant G237_04F/GpL16-k0 (antibody, human IgG1, kappa)
heavy: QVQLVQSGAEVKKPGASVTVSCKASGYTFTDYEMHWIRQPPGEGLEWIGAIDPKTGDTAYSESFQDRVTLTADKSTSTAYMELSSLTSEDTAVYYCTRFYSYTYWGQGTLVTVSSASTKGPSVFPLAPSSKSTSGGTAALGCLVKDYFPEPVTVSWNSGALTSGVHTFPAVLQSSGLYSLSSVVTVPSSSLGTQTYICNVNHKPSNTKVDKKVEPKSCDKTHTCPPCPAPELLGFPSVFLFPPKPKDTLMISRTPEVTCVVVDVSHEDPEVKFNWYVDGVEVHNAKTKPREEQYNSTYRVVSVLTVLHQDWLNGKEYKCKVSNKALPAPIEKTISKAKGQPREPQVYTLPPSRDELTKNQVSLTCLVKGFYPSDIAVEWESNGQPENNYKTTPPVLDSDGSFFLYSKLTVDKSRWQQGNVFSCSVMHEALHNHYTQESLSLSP
light: B1 light
notes: also called Ho Ab G237_04F
B34: GpH7-B3 variant I332_14T/GpL16-k0 (antibody, human IgG1, kappa)
heavy: not shown
light: B1 light
notes: also called Ho Ab I332_14T
B35: GpH7-B3 variant K326_14T/GpL16-k0 (antibody, human IgG1, kappa)
heavy: not shown
light: B1 light
notes: also called Ho Ab K326_14T
B36: GpH7-B3 variant I332_10E/GpL16-k0 (antibody, human IgG1, kappa)
heavy: not shown
light: B1 light
notes: also called Ho Ab I332_10E
B37: GpH7-B3 variant K334_14T/GpL16-k0 (antibody, human IgG1, kappa)
heavy: not shown
light: B1 light
notes: also called Ho Ab K334_14T
B38: GpH7-B3 variant K326_09D/GpL16-k0 (antibody, human IgG1, kappa)
heavy: not shown
light: B1 light
notes: also called Ho Ab K326_09D
B39: GpH7-A5/GpH7-B3 variant S337_10E/GpL16-k0 (antibody, human IgG1, kappa)
heavy 1: not shown
heavy 2: not shown
light: B1 light
notes: as for B1
B40: GpH7-A5/GpH7-B3 variant T335_07I/GpL16-k0 (antibody, human IgG1, kappa)
heavy 1: not shown
heavy 2: not shown
light: B1 light
notes: as for B1
B41: GpH7-B3 variant H268_18N/GpL16-k0 (antibody, human IgG1, kappa)
heavy: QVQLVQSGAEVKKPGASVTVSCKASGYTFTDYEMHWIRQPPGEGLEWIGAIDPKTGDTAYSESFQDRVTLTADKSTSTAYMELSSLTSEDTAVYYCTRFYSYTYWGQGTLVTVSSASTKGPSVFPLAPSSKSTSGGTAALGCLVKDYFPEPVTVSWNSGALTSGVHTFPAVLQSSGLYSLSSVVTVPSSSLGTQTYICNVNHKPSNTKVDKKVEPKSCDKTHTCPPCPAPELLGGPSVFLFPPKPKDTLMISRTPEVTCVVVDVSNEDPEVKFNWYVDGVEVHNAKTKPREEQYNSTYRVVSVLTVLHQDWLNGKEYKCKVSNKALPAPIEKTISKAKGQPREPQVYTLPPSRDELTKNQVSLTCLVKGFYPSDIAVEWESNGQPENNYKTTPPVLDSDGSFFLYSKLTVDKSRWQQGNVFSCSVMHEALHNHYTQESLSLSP
light: B1 light
notes: also called Ho Ab H268_18N
B42: GpH7-B3 variant I332_09D/GpL16-k0 (antibody, human IgG1, kappa)
heavy: not shown
light: B1 light
notes: also called Ho Ab I332_09D
B43: GpH7-B3 variant K326_15Y/GpL16-k0 (antibody, human IgG1, kappa)
heavy: not shown
light: B1 light
notes: also called Ho Ab K326_15Y
B44: GpH7-B3 variant K334_10E/GpL16-k0 (antibody, human IgG1, kappa)
heavy: not shown
light: B1 light
notes: also called Ho Ab K334_10E
B45: GpH7-A5/GpH7-B3 variant T335_10E/GpL16-k0 (antibody, human IgG1, kappa)
heavy 1: not shown
heavy 2: not shown
light: B1 light
notes: as for B1
B46: GpH7-B3 variant K334_08L/GpL16-k0 (antibody, human IgG1, kappa)
heavy: not shown
light: B1 light
notes: also called Ho Ab K334_08L
B47: GpH7-B3 variant H268_09D/GpL16-k0 (antibody, human IgG1, kappa)
heavy: not shown
light: B1 light
notes: also called Ho Ab H268_09D
B48: GpH7-B3 variant K334_04F/GpL16-k0 (antibody, human IgG1, kappa)
heavy: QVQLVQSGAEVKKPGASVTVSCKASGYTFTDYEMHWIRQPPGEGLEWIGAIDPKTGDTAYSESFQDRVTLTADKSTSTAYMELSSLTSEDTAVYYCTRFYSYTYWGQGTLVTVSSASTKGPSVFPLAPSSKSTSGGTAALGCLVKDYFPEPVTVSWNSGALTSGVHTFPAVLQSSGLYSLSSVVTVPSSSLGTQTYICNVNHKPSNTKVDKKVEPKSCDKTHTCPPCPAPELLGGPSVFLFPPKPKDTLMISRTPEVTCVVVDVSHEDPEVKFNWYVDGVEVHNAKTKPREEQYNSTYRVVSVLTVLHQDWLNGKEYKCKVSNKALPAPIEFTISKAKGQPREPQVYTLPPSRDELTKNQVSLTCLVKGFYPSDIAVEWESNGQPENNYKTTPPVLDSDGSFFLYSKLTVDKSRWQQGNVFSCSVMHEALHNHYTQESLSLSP
light: B1 light
notes: also called Ho Ab K334_04F
B49: GpH7-B3 variant K334_05P/GpL16-k0 (antibody, human IgG1, kappa)
heavy: not shown
light: B1 light
notes: also called Ho Ab K334_05P
B50: GpH7-B3 variant G236_09D/GpL16-k0 (antibody, human IgG1, kappa)
heavy: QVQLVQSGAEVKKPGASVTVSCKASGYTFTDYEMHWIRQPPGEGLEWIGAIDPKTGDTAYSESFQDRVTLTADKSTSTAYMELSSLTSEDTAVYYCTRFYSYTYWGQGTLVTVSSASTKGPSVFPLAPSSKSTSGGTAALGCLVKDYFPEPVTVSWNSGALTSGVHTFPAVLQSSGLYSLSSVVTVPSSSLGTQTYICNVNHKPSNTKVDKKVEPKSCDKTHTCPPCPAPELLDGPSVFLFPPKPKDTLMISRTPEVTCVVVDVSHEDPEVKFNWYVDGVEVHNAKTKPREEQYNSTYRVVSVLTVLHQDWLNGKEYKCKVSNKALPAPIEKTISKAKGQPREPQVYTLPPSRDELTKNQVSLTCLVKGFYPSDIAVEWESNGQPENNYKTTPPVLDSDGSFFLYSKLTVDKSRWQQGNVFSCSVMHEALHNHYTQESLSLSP
light: B1 light
notes: also called Ho Ab G236_09D
B51: GpH7-B3 variant K326_20W/GpL16-k0 (antibody, human IgG1, kappa)
heavy: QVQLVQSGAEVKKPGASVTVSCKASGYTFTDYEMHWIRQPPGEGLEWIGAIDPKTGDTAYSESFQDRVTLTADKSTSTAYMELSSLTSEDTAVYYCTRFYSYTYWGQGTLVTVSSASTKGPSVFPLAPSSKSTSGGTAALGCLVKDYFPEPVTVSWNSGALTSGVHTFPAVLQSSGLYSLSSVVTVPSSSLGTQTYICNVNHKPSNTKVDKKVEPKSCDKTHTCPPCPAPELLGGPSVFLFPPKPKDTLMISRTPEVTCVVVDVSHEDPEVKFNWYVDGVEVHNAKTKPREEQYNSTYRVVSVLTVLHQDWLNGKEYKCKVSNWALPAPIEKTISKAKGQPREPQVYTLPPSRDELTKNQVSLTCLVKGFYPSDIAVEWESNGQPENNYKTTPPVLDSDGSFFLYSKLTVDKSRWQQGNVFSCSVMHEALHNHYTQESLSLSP
light: B1 light
notes: also called Ho Ab K326_20W
B52: GpH7-B3 variant H268_13S/GpL16-k0 (antibody, human IgG1, kappa)
heavy: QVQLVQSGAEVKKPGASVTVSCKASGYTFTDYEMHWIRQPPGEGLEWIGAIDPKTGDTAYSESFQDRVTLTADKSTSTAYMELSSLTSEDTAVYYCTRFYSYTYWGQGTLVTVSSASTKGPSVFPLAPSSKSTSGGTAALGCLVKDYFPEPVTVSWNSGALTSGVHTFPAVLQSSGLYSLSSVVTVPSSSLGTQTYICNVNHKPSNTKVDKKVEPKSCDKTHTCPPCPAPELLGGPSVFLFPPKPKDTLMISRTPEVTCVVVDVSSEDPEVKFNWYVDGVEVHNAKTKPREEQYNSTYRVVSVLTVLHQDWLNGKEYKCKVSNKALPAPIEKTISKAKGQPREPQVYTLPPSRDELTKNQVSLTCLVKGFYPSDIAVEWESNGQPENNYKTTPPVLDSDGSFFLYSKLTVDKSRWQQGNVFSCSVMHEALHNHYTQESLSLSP
light: B1 light
notes: also called Ho Ab H268_13S
B53: GpH7-B3 variant K326_16H/GpL16-k0 (antibody, human IgG1, kappa)
heavy: not shown
light: B1 light
notes: also called Ho Ab K326_16H

Legend:
[1] = target: T1, FcγRIIa H (FcγRIIa type H, His at …); experiment: SPR Biacore, relative binding, GpH7-A5/GpH7-B3/GpL16-k0 (HeCon Ab)=100
Experimental: (§1) Analysis of interaction between objective antibody and the FcγR was carried out using Biacore T100 (GE Healthcare). HBS-EP+ (GE Healthcare) was used as the running buffer, and the measurement temperature was set to 25° C. Chips produced by immobilizing the antigen peptide by the amine coupling method to a Series S Sencor Chip CM5 (GE Healthcare), or alternatively, chips produced by allowing preliminarily biotinylated antigen peptides to interact with and immobilize onto a Series S Sensor Chip SA (certified) (GE Healthcare) were used. Antibodies of interest were captured onto an antigen peptide-immobilized chip, and allowed to interact to each FcγR diluted with running buffer. To regenerate and repeatedly use the chip, the antibodies captured on the chip were washed off by reacting 10 mM glycine-HCl, pH 1.5.

[2] = target: T2, FcγRIIb extracellular domain with …; experiment: SPR, relative binding, HoCon Ab = 100
Experimental: as §1

Row | Binder | He/Con_2aH [1] | Ho/Con_2b [2]
1 | B1 | 107 % of control | –
2 | B2 | – | 170 % of control
3 | B3 | 106 % of control | –
4 | B4 | 103 % of control | –
5 | B5 | – | 110 % of control
6 | B6 | – | 103 % of control
7 | B7 | – | 148 % of control
8 | B8 | – | 114 % of control
9 | B9 | – | 175 % of control
10 | B10 | – | 145 % of control
11 | B11 | 105 % of control | –
12 | B12 | – | 117 % of control
13 | B13 | – | 109 % of control
14 | B14 | – | 163 % of control
15 | B15 | 101 % of control | –
16 | B16 | – | 106 % of control
17 | B17 | 103 % of control | –
18 | B18 | – | 160 % of control
19 | B19 | – | 117 % of control
20 | B20 | – | 158 % of control
21 | B21 | – | 184 % of control
22 | B22 | – | 166 % of control
23 | B23 | – | 193 % of control
24 | B24 | – | 275 % of control
25 | B25 | 103 % of control | –
26 | B26 | – | 168 % of control
27 | B27 | – | 117 % of control

Row | Binder | He/Con_2aH [1] | Ho/Con_2b [2]
28 | B28 | – | 237 % of control
29 | B29 | 106 % of control | –
30 | B30 | – | 102 % of control
31 | B31 | – | 137 % of control
32 | B32 | – | 116 % of control
33 | B33 | – | 140 % of control
34 | B34 | – | 106 % of control
35 | B35 | – | 177 % of control
36 | B36 | – | 181 % of control
37 | B37 | – | 138 % of control
38 | B38 | – | 240 % of control
39 | B39 | 102 % of control | –
40 | B40 | 108 % of control | –
41 | B41 | – | 179 % of control
42 | B42 | – | 182 % of control
43 | B43 | – | 162 % of control
44 | B44 | – | 129 % of control
45 | B45 | 108 % of control | –
46 | B46 | – | 114 % of control
47 | B47 | – | 298 % of control
48 | B48 | – | 115 % of control
49 | B49 | – | 112 % of control
50 | B50 | – | 207 % of control
51 | B51 | – | 132 % of control
52 | B52 | – | 186 % of control
53 | B53 | – | 131 % of control
